From patent KR20160022857A (dated 2016)
Substitutions are numbered along the chain they refer to.

B1: hz1E11-154 (IgG) (antibody, V domains shown)
VH: EVQLVESGGGLVQPGGSLRLSCAASGFTFSSYTMSWVRQAPGKGLEWVAYISNGGGSTYYPDTVKGRFTISRDNAKNSLYLQMNSLRAEDTAVYYCARHLGGTASFDYWGQGTLVTVSS
VL: DIQMTQSPSSLSASVGDRVTITCLASQTIGTWLAWYQQKPGKAPKLLIYVATSLADGVPSRFSGSGSGTDFTLTISSLQPEDFATYYCQQTAFSPWTFGQGTKVEIK
notes: heavy variable region same as hz1E11
B2: hz1E11-133 (IgG) (antibody, V domains shown)
VH: B1 VH
VL: B1 VL with T91N, F93Y, S94A
notes: as for B1
B3: M1-L-A1-3-1C3 (hz1E11-3), periplasmic extract (antibody, V domains shown)
VH: B1 VH
VL: B1 VL with Q89D, T91M, A92Y, F93S, S94T
notes: Clone as expressed in bacteria, periplasmic extract; LCDR3 DQMYSTPWT
B4: M3-LH-A1-2-2F4 (antibody, V domains shown)
VH: B1 VH with H99N
VL: B1 VL with T91L, A92V, F93R, S94I
B5: M1-LH-A3-3-1A6 (antibody, V domains shown)
VH: B1 VH with H99N, L100Y
VL: B1 VL with T91L, A92V, F93R, S94T
B6: M3-LH-A1-1-1H1 (antibody, V domains shown)
VH: B1 VH with H99N, L100Y
VL: B1 VL with T91N, A92F, F93I, S94A
B7: M3-LH-A3-3-2A5 (antibody, V domains shown)
VH: B1 VH with L100W
VL: B1 VL with T91M, A92F, F93S, S94T
B8: M3-LH-A3-3-2F1 (antibody, V domains shown)
VH: B1 VH
VL: B1 VL with T91N, F93Y, S94N
notes: substitutions derived from the printed CDR3
B9: M3-L-A3-4-2E8 (antibody, V domains shown)
VH: B1 VH
VL: B1 VL with T91I, F93Y, S94V
notes: hz1E11 variant, periplasmic extract; substitutions derived from the printed CDR3 against hz1E11
B10: M3-L-A1-3-2C2 (antibody, V domains shown)
VH: B1 VH
VL: B1 VL with T91L, A92G, S94I
notes: as for B9
B11: M3-L-A1-3-1A12 (hz1E11-133), periplasmic extract (antibody, V domains shown)
VH: B1 VH
VL: B1 VL with T91N, F93Y, S94A
notes: Clone as expressed in bacteria (IPTG), periplasmic extract; LCDR3 QQNAYAPWT
B12: M3-L-A1-3-1F11 (hz1E11-154), periplasmic extract (antibody, V domains shown)
VH: B1 VH
VL: B1 VL
notes: Clone as expressed in bacteria, periplasmic extract; LCDR3 QQTAFSPWT

biological target: T1, HER2-ECD-His 단백질 (human, UniProt P04626 23-652); test: SPR; IgG captured on goat anti-human IgG; HER2-ECD-His as analyte
T1 construct: extracellular domain; Origin and limits of the construct are not described; not shown: His tag

fold decrease of koff (kd) vs hz1E11 [fold]	fold improvement of affinity (KD) vs hz1E11 [fold]	Binder
8.4	20	B1
8.4	15	B2

biological target: T1, HER2-ECD-His 단백질; test: SPR (Biacore 3000); HER2-ECD-His amine-coupled on CM5; periplasmic extract as analyte

koff 감소 정도 (Fold) vs hz1E11 [fold]	Binder
7.4	B3
3.2	B4
5.8	B5
0.7	B6
3.6	B7
4.4	B8
5.9	B9
2	B10
30.4	B11
9.7	B12
